Data taken from paper PMC3025077 (Peptides, 2010).

What was measured:
[1] = molecular target: T1, human Y5 receptor (Homo sapiens, UniProt Q15761); conditions: uncompeted specific binding at 50 pM [125I]agonist as percent of the specific binding of [125I]hNPY; human Y5 in HEK293 cells; ± S.E.M.; SEM
T1 sequence (Q15761 1-445): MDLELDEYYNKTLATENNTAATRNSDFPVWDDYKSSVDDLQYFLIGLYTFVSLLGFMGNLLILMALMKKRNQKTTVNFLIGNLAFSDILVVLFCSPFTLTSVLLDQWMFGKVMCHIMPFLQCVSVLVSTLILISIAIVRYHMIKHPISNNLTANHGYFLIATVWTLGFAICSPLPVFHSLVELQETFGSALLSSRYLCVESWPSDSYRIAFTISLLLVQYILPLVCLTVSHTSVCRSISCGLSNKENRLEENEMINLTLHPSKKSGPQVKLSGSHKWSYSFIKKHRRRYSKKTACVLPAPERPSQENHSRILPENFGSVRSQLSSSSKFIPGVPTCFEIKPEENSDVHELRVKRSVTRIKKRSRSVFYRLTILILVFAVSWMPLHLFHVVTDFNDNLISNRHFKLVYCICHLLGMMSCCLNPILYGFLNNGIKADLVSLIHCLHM

[2] = tested on: hY1-CHO; assay: Non-specific binding of agonists, saturation and time course, hY1-CHO; conditions: hyperbolic fit; 50 pM tracer at 100 nM unlabeled peptide over 3, 6, 10, 20 and 30 min at 25 °C

## human (Leu^31,Pro^34) peptide YY [LP-hPYY]
[1]
  % of NPY binding, Y5: 96.5 ±16%
[2]
  Half-period of equilibration of non-specific binding, hY1-CHO: 1.72 ± 0.11 min
